In patent US20160244745A1 (published 2016):

Key:
Test in all cases: yeast display titration; KD, yeast
Rabbit IgG = target: Rabbit IgG
Goat IgG = target: Goat IgG
Lysozyme = target: Lysozyme

Binder: KFWATVHSVHGYFEVPVYAETLDEALELAFGQYGNALGYVTRVRP (designed binder) [Rabbit IgG 3.2.3]
- Kd (Rabbit IgG): 1.5 nM

Binder: KFWATVYDYDADYYFEVPVYAETLDEALELAVWRYYSNHSDYLVTRVRP (designed binder) [Goat IgG 2.2.1]
- Kd (Goat IgG): 0.2 nM

Binder: KFWATVFSYGNLFEVPVYAETLDEALELAEWQYSGAYEYVTRVRP (designed binder) [Lysozyme A0.3.2]
- Kd (Lysozyme): ~1550 nM
